Assays:
human C5 [1] = molecular target: T1, human C5 (human, UniProt P01031 19-1676); assay: cell-based or functional assay
African green monkey C5 [2] = molecular target: T2, African green monkey C5 (African green monkey); assay: cell-based or functional assay
human C5 R885H-mmh = human C5 R885H-mmh (human, UniProt P01031 19-1676); assay: cell-based or functional assay
human C5 R885C-mmh = human C5 R885C-mmh (human, UniProt P01031 19-1676); assay: cell-based or functional assay
human C5 [3] = molecular target: T1, human C5; assay: cell-based or functional assay; remark: listed apart in the source
African green monkey C5 [4] = molecular target: T2, African green monkey C5; assay: cell-based or functional assay; remark: listed apart in the source
Cynomolgus monkey C5 = Cynomolgus monkey C5 (cynomolgus monkey, UniProt A0A2K5U1T1 19-1676); assay: cell-based or functional assay
human C5 [5] = molecular target: T1, human C5; assay: SPR (Biacore), mAb captured, dissociation of human C5 at pH7.4 vs pH6.0, 37°C
Method: Effect of pH on the rate of dissociation of recombinant human C5 bound to purified anti-C5 monoclonal antibodies was determined using a real-time surface plasmon resonance biosensor using a Biacore T200 instrument. The Biacore sensor surface was first derivatized by amine coupling with a monoclonal mouse anti-human Fc antibody (GE, # BR-1008-39) to capture anti-C5 monoclonal antibodies expressed with human IgG4 Fc. All Biacore binding studies were performed using two running buffers PBS-T, pH7.4 (0.01M Na₂HPO₄/NaH₂PO₄, 0.15M NaCl, 0.05% v/v Tween-20, adjusted to pH7.4) and PBS-T, pH6.0 (0.01M Na₂HPO₄/NaH₂PO₄, 0.15M NaCl, 0.05% v/v Tween-20, adjusted to pH6.0). […] Binding dissociative half-lives (t %) were calculated from kd as: […]

monkey C5-mmh [6] = molecular target: T3, monkey C5-mmh (monkey, UniProt P01031 19-1676 (human entry), limits assumed); assay: SPR (Biacore), mAb captured, dissociation of monkey C5 at pH7.4 vs pH6.0, 25°C
T3 construct: recombinant, with C-terminal myc-myc-hexahistidine tag
T3 chain: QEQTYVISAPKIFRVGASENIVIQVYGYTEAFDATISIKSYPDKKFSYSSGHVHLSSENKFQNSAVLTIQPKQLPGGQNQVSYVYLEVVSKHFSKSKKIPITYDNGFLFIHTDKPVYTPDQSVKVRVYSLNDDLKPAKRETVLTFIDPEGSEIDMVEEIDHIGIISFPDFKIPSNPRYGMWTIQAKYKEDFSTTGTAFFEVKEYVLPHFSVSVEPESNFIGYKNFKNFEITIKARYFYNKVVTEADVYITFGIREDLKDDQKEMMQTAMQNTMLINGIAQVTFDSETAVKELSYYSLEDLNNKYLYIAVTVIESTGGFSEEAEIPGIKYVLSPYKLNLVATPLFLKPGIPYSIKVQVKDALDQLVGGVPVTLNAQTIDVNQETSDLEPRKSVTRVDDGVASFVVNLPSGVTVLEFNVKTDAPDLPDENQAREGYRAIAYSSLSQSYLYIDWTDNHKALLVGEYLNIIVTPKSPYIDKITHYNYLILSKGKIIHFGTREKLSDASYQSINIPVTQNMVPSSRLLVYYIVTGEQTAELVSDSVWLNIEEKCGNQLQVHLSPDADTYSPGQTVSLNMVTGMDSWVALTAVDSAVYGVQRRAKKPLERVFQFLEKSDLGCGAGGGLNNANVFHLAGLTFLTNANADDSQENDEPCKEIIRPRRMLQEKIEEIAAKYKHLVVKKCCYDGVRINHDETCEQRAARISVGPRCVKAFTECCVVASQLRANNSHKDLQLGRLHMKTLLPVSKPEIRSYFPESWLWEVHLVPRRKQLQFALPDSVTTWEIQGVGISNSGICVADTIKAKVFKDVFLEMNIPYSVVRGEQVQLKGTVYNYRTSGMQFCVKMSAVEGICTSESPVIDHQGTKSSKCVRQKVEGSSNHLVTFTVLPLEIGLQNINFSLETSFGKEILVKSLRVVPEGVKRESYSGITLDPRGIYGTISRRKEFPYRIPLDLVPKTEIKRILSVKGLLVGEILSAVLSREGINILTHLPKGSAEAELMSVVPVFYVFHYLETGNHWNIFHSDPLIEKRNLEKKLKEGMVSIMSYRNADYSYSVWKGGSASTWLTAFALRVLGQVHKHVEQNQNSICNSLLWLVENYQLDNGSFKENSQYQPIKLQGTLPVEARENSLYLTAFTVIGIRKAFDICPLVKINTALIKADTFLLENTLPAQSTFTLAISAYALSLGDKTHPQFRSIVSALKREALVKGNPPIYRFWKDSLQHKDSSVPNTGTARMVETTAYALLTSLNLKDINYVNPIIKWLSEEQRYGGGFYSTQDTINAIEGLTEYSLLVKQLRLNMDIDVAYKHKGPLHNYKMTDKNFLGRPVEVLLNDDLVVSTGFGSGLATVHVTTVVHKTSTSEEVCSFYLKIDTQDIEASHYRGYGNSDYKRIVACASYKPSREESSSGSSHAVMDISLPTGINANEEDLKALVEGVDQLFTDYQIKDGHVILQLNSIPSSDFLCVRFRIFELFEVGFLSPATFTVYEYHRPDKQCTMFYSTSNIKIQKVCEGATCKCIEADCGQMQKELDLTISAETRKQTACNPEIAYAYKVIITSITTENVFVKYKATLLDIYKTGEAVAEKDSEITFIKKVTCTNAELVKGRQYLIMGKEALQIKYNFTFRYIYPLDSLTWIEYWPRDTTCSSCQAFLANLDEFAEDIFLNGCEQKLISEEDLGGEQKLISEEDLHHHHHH

monkey C5-mmh [7] = molecular target: T3, monkey C5-mmh; assay: SPR (Biacore), mAb captured, dissociation of monkey C5 at pH7.4 vs pH6.0, 37°C

Binder | IC50, inhibition of CDC of Daudi cells, 1.66% human serum (human C5 [1]) | IC50, inhibition of CDC of Daudi cells, 1.66% African Green monkey serum (African green monkey C5 [2]) | IC50, inhibition of CDC of Daudi cells, C5 depleted human serum and 6.6 nM C5 Variant R885H (human C5 R885H-mmh) | IC50, inhibition of CDC of Daudi cells, C5 depleted human serum and 6.6 nM C5 Variant R885C (human C5 R885C-mmh) | Human AP % Max Inhibition, hemolysis assay, NHS (human C5 [3]) | Human AP IC50, hemolysis assay, NHS (human C5 [3]) | Human CP % Max Inhibition, hemolysis assay, NHS (human C5 [3]) | Human CP IC50, hemolysis assay, NHS (human C5 [3]) | AGM AP % Max Inhibition, hemolysis assay, 5% serum (African green monkey C5 [4]) | AGM CP % Max Inhibition, hemolysis assay, 5% serum (African green monkey C5 [4]) | AGM Serum AP IC50, hemolysis assay, 5% serum (African green monkey C5 [4]) | AGM Serum CP IC50, hemolysis assay, 5% serum (African green monkey C5 [4]) | Cyno AP % Max Inhibition, hemolysis assay, 5% serum (Cynomolgus monkey C5) | Cyno CP % Max Inhibition, hemolysis assay, 5% serum (Cynomolgus monkey C5) | Cyno Serum AP IC50, hemolysis assay, 5% serum (Cynomolgus monkey C5) | Cyno Serum CP IC50, hemolysis assay, 5% serum (Cynomolgus monkey C5) | t½ Ratio pH7.4/pH6.0 (human C5 [5]) | t½ Ratio pH7.4/pH6.0 (monkey C5-mmh [6]) | t½ Ratio pH7.4/pH6.0 (monkey C5-mmh [7])
H4H12163P (antibody, human IgG4, V domains shown, H4H: human IgG4 Fc with S108P hinge mutation) VH: EVQLVESGGDLVQPGGSLRLSCAASGFTFSSYAMNWVRQGPGKGLEWVSAISGRGDSTYYADSVKGRLTISRDNSKNTLYLQMNSLRAEDTAVYYCVKEGEQLVYWYFDLWGRGTLVTVSS VL: DIQMTQSPSSLSASVGDRVTITCRASQTISNFLHWYQQKPGKAPKLLIYAASSLQSGVPSRFSGSGSGTDFTLTISSLQPEDFSTYFCQQSYTTPLTFGGGTKVEIK | 3.4 nM | 3.7 nM | 2.1 nM | 1.1 nM | 66% | 20.5 nM | 96.1% | 2.72 nM | 58.5% | 83.2% | 216 nM | 69 nM | 98.5% | 96.4% | 10.2 nM | 16.5 nM | 0.8 | 9.7 | 3.3
H4H12167P (antibody, human IgG4, V domains shown, H4H: human IgG4 Fc with S108P hinge mutation) VH: QVQLVESGGGLVKPGGSLRLSCAASGFTFSDSYMSWIRQAPGKGLEWISYIGSSGNTFYYADSVKGRFTISRDNANNLLYLQMTSLRAEDTAVYYCAREEGDFWSAVDSWGQGTLVTVSS VL: DIQLTQSPSFLSASVGDRVTITCWASQGISSYLAWYQQKPGKAPKLLIHTASTLQSGVPSRFSGSGSGTEFTLTISNLQPEDFATYYCQQLNSYPFTFGPGTKVDIK | 2.5 nM | 3.5 nM | 1.9 nM | 1 nM | 64.8% | 15.5 nM | 99.9% | 3.68 nM | 53.4% | 90.5% | 69.5 nM | 69.5 nM | 98.3% | 100% | 7.6 nM | 21.3 nM | 0.2 | 9.2 | 4.4
H4H11686N (antibody, human IgG4, V domains shown, tested with H4H prefix (human IgG4 Fc with S108P hinge mutation); also called H2M11686N) VH: QVQLVESGGGLVKPGGSLRLSCAASGFTFSDYYMSWIRQAPGKGLEWVSYISSSGNTIKYADSMKGRFTISRDNAKKSLFVEMNSLRAEDTAVYYCARYKSSSDYFDHWGQGTLVTVSS VL: EIVLTQSPATLSLSPGERATLSCRASQSVRSYLAWYQQKPGQAPRLLIYDASNRATAIPARFSGSGSGTDFTLTISSLEPEDLAVYYCQQSGNWPLTFGGGTKVEIK | 1.5 nM | 4.4 nM | 1.1 nM | 0.45 nM | 76.2% | 13 nM | 97.4% | 3.09 nM | 50.4% | 49.3% | 163 nM | 48.2 nM | 98.7% | 94.5% | 9 nM | 14.1 nM | 0.8 | 0.37 | 0.5
H4H12168P (antibody, human IgG4, V domains shown, H4H: human IgG4 Fc with S108P hinge mutation) VH: QVQLVESGGGVVQPGGSLRLSCAASGFTFGGHAMHWVRQAPGKGLEWLAVISSDGSNKQYADSVKGRFTISRDNPKNTLYLQMNSLRVGDTAIYYCAKEVAPRYYYYGLDVWGQGTTVTVSS VL: DIQMTQSPSSLSASVGDRVTITCRASQDISNFLAWYQQKPGKVPKLLIYTASTLQSGVPSRFSGSGSGTDFTLTVSSLQPEDVATYYCQKYAGALTFGPGTKVDIK | 1.5 nM | 2 nM | 2.3 nM | 0.86 nM | 66.2% | 28.5 nM | 97.5% | 3.33 nM | 88.2% | 90.8% | 22.5 nM | 28 nM | 99.7% | 99% | 5.45 nM | 10.3 nM | 1 | 3.8 | 4

From US20170355757A1 (Regeneron, published 2017)
